Measurements from the supplement of paper PMC9170038.

Test system: MS2 coat protein
Assay: apparent KD of MS2 coat protein; designed switch direction (-1 OFF switch, 1 ON switch): 1; higher = weaker reporter binding
In short: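 Designed RNA switches with common flanks were transcribed on Illumina chips by stalled E. coli RNA polymerase and titrated with SNAP-549-labelled MS2 coat protein, from 0.7 or 1.5 nM doubling to 3 µM, in Tris-HCl pH 7.5 buffer with KCl, MgCl2, BSA, DTT, tRNA and Tween-20. Steps lasted 0.8–1.5 h (lowest) to 10–20 min (highest). Titrations ran without input, with 200 uM small-molecule ligand, or with an oligonucleotide input. Normalised cluster fluorescence was curve-fitted, and apparent KD is the per-design median over clusters.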

[1] = input ligand: microRNA oligo, concentration not stated
[2] = Eterna round: R95, input ligand: FMN 200 uM
[3] = Eterna round: R95, input ligand: microRNA oligo, concentration not stated
[4] = Eterna round: R95, input ligand: none

Sequence | apparent KD of MS2 coat protein (input ligand: FMN 200 uM) [nM] | apparent KD of MS2 coat protein [1] [nM] | apparent KD of MS2 coat protein (input ligand: none) [nM] | apparent KD of MS2 coat protein [2] [nM] | apparent KD of MS2 coat protein [3] [nM] | apparent KD of MS2 coat protein [4] [nM]
UUGAAGAAUUAAGGAUAUCGAGUACAUAUGUUUAACAUGAGGAUCACCCAUGUGGGUUGCGGUAUCGAGAAGGUAAAUUACAAG [JL SSNG2 1.43] (Eterna round: R96, puzzle: Same State NG 2) | 45.3 | 32 | 53.9 |  |  | 
GAAAAACAUGAGGAUCACCCAUGUAGAAAUAUGGGAGGAUAUACAAAGUCGAAAGACAAAGUAGAAGGCCUAAAAG [Mat - Same State 1 - Eli mod - D2] (Eterna round: R96, puzzle: Same State 1) |  | 96.8 |  |  |  | 
GUUCCAAGGUGAGGAUAUGCAGAGGAUCACCCUGUAGAAGGCAUCAGGUGAGGAUAUGCAGAGGAUCACCCUGUAGAAGGCAUC [pwkr ssNG DX.10] (Eterna round: R96, puzzle: Same State NG 1) | 105 | 180 | 295 |  |  | 
UAGUACAUGCUUUUUGUCCGUCUUAGAUAACAUGAGGAUCACCCAUGUAAGGUGAAAGUUAUAUAGUUUAGGAAGAU [JR_SHM208A_Sub056] (puzzle: Sensor for hsa-mir-208a) |  |  |  | 309 | 424 | 331
AUAAGUUUGAUGCUCGUCUCUCCGUACGGACAUGAGGAUCACCCAUGUAGUCGGGAAGUAGCCCGGCCAGUAUGGCC [Soveerre] (puzzle: Sensor for hsa-mir-208a) |  |  |  | 32.6 | 22.3 | 22.9
UACAAUCUAUCUGAGGAUAUCAUGAACAAAACAUGAGGAUCACCCAUGUGCAGGAAAACUGCAUAUGAGAAGGCAGAUAGAUUGU [Mat - Same State 2 - Mod - D22] (puzzle: Same State 2) |  |  |  | 51 | 1560 | 876
AUACAUGAGGAUCACCCAUGUAAUUAAUUAACUUGUAAGAUCAAGGAUAUCAGCUCGAUUAGAGCUGAGAAGGUGAUCACAUGU [SSNG3/21-C2] (Eterna round: R96, puzzle: Same State NG 3) |  | 116 |  |  |  | 
GGUCCAGCGAGAGCUGGACAAAAGCAUGUACAUGAGGAUCACCCAUGUCAUGUACAAGCUUUUUGCUCGUCUUAAAA [Mat - Sensor - JL mod - D88] (Eterna round: R96, puzzle: Sensor for hsa-mir-208a) | 556 | 12.9 | 486 |  |  | 
AUUAUUAAUGCAGGAUAUGAUUAACAUGAGGAUCACCCAUGUGGUGUUGUGAGUAAGGAGAGUGAUCAGAAGGGCAUCUUUUUU [JMF's solution 10] (Eterna round: R96, puzzle: Same State NG 2) | 470 | 312 | 359 |  |  | 
AUAGUUAGCAAAGGAUAUGGGAAAGGAAGUGUACCAGAAGGUUGGCUACUGGGCUUACAUGAGGAUCACCCAUGUCCCGGUAGC [PowerStrip SSNG 1.30] (Eterna round: R96, puzzle: Same State NG 1) | 14.6 | 14.2 | 15.4 |  |  | 
GUGGUCAGACAUGAGGAUCACCCAUGUGGAAUAAAUAAGGAAGAGGAUAUCGAAUAUAGGAUAUACGAGAAGGUUUGGUUGGUG (Eterna round: R96, puzzle: Same State NG 3) | 117 | 77.5 | 94.6 |  |  | 
AUUAUCAAUGCAGGAUAUGAUUAACAUGAGGAUCACCCAUGUGGUGUUGUGAGUAAGGAGAGUGAUCAGAAGGGCAUUUUUUUU [JMF's solution 26] (Eterna round: R96, puzzle: Same State NG 2) | 575 | 261 | 475 |  |  | 
UGGCUGGUGCUAGGAUAUGCAUGAGGCCUCCUCGUAGAAGGAGCGCGACAUGAGGAUCACCCAUGUAGCCGUCCGUAGACGGCU [salish99_SSNG1_r04_012] (Eterna round: R96, puzzle: Same State NG 1) | 165 | 100 | 193 |  |  | 
AUUGCUUUCGCAGGAUAUGAUGCGAAAAUUGCGUCAGAAGGGUGGAGUCUCUCAUUGCUAGAGGACAUGAGGAUCACCCAUGUC [SameState NG1 #85] (Eterna round: R96, puzzle: Same State NG 1) | 188 | 309 | 541 |  |  | 
AACAGUCGGCGAGGAUAUGGACGUACGGACUAACCCGCGCGGCUCACAUGAGGAUCACCCAUGUUCUAGAAGGCGCCACUGAAA [Xeorendi] (Eterna round: R96, puzzle: Same State NG 2) | 13.8 | 45.3 | 50.9 |  |  | 
AGUCCAGCAUGAGCUGGACAAAAGCAUGUACAUGAGGAUCACCCAUGUUCAUGUACAAGCUUUUUGCUCGUCAAAAG [Mat - hsa-mir-208a - Mod of JL - 70] (puzzle: Sensor for hsa-mir-208a) |  |  |  | 225 | 19.6 | 320

Sequence | apparent KD of MS2 coat protein (input ligand: FMN 200 uM) [nM] | apparent KD of MS2 coat protein [1] [nM] | apparent KD of MS2 coat protein (input ligand: none) [nM] | apparent KD of MS2 coat protein [2] [nM] | apparent KD of MS2 coat protein [3] [nM] | apparent KD of MS2 coat protein [4] [nM]
GUAGCAUACCGAGGAUAUUCAUAUUAUACAUGAGGAUCACCCAUGUUAGGCCGAUUACGGCCUUGGGAGAAGGCGGAAUGCUAC [Xeonanis - 20 Mod20] (Eterna round: R96, puzzle: Same State NG 2) | 21.8 | 53.3 | 75 |  |  | 
CGGAAACGAUGAGGAUAUGCAGAGGAUCACCCUGUAGAAGGCAAGAGAUGAGGAUAUGCAGAGGAUCACCCUGUAGAAGGCAAC [pwkr ssNG DX.4] (Eterna round: R96, puzzle: Same State NG 1) | 146 | 56.5 | 84.9 |  |  | 
UGUUGUAUUACAGGAUAUCUAUUGGUUUUAUUUAGAGAAGGGUAUUCACAUGAGGAUCACCCAUGUAUAUACGAGGAAGUUGUG [JMF's solution 72] (Eterna round: R96, puzzle: Same State NG 1) |  | 43.3 |  |  |  | 
UAGUACAAGCUUUUUGCUUGUCUUAUUUAACAUGAGGAUCACCCAUGUAAGUUGAAAGUUAGAGAGUGCAGGUUGAA [JR_SHM208A_Sub051] (puzzle: Sensor for hsa-mir-208a) |  |  |  | 16.8 | 21.9 | 17.1
GAAUAGUUGAGAGGAUAUGUAUUAUUGUAGGAUACAGAAGGUUUUAACAUGAGGAUCACCCAUGUAGGACUAUAUAUGUGAAUA [Parity 98 - Jieux - Same State NG 1] (Eterna round: R96, puzzle: Same State NG 1) |  | 11.7 |  |  |  | 
GCUCGCACGAUGACCCACAUGAGGAUCACCCAUGUGUGUGGGCAGGAUAUCUAGAUUAAGGAUGUAGAGAAGGGUUGAGCGAGC [SameState NG3 #24] (Eterna round: R96, puzzle: Same State NG 3) | 513 | 133 | 138 |  |  | 
AAUAACAAUUUAGGAUAUCGACAGCGAAACUCACGAGAAGGAGAUAAGAGGCUGGCCUCGCGCACAUGAGGAUCACCCAUGUCG [Eternabot solution 25] (Eterna round: R96, puzzle: Same State NG 1) | 38.1 | 29.8 | 41.1 |  |  | 
GAGGAUGAACUACAGGAUAUAUAGCAGAUGACAUGAGGAUCACCCAUGUAAGAGAAAGGAGGGAGAUAGAAGGGUAUGGGAGGUG [JR_SS2_Sub037] (puzzle: Same State 2) |  |  |  | 34.4 | 28.6 | 27.1
UGUUGUUAAUUAGGAUAUGGGCACAUGAGGAUCACCCAUGUAUUGUCGAUGCUAUGUGGACACGUCUAGAAGGAAUGGCUAACA [SameState NG2 #90] (Eterna round: R96, puzzle: Same State NG 2) | 72.9 | 88 | 112 |  |  | 
ACAUGACAUGAGGAUCACCCAUGUCGAUAAAAGCAAGGAUAUGGGCCCGAGUCGUUCGGACCAGAAGGUGCGUCUC [Orso] (Eterna round: R96, puzzle: Same State 1) | 18.3 | 16.3 | 23.8 |  |  | 
AUGUGUUUGCGAGGAUAUCGUUUGUUGAAGUUACGAGAAGGCGCUCACUUUACAUGAGGAUCACCCAUGUCUUUGAUGCAUGAU [JR_SSNG1_Sub073] (Eterna round: R96, puzzle: Same State NG 1) | 46.6 | 40.2 | 44.1 |  |  | 
CAGCGCUGUCGAGAGGAUAUGCAGUGAUGGACAUGAGGAUCACCCAUGUUAGCGAUAGCAUUACAGUAGAAGGCUCUACAGCUGC [Soteed - 14] (puzzle: Same State 2) |  |  |  | 13 | 16.4 | 19.5
AAAUAAAACACAGGAUAUGCAGUCAAAACGACGGCAGAAGGGUGAGACAUGAGGAUCACCCAUGUACACAUCCCACGGAUGUGC [Anonised] (Eterna round: R96, puzzle: Same State NG 1) | 1060 | 546 | 1060 |  |  | 
UAGUACAUGCUUUUUGUCUGUCUUAGAUCACAUGAGGAUCACCCAUGUUUGGUGAAAGUUAUUUUGUUUAUGACUAU [JR_SHM208A_Sub060] (puzzle: Sensor for hsa-mir-208a) |  |  |  | 257 | 194 | 430
GUGGUCAGACAUGAGGAUCACCCAUGUGGAAUAAAUAACGGACAGGAUAUUGAAUAUAGGAUAUACAAGAAGGGUUGAUUGGUG (Eterna round: R96, puzzle: Same State NG 3) | 83.6 | 47.7 | 73.9 |  |  | 
